Among the data in article PMC3749045 are stoichiometry N values, retold here.

This assay addresses NarXS1 (NarX periplasmic sensor domain, residues 38 - 151) (Escherichia coli K-12) (UniProt P0AFA2). Kind of assay: crystal structure.

With “NarXS1 (NarX periplasmic sensor domain, residues 38 - 151) (from UniProt P0AFA2 38-151) (domain or fragment)”, the stoichiometry N (as a rule, a count of units in the complex or per binding partner) was 2.
